In patent publication US20230364186A1 (CURA THERAPEUTICS, published 2023) one finds IC50 data, which are given here for 2 molecules.

One assay addresses T1, Human active TGFβ1 (human, UniProt P01137 279-390).
T1 construct: mature; also called TGFB1
Nature of the assay: blocking of active TGFβ1 (1 ng/mL) in solution, 30 min in PBS; free TGFβ1 by ELISA. The source says:
TGFβ causes a wide range of immune suppression in several immune cell types including inhibition of crucial early innate IFN responses.
Background: In an ELISA, binding on a coated surface is turned into a signal by an enzyme label.

For another assay, the target named is active TGFβ3 (UniProt P10600). Nature of the assay: blocking of active TGFβ3 (1 ng/mL) in solution, 30 min in PBS; free TGFβ3 by ELISA.
Sequence of active TGFβ3 (P10600 301-412): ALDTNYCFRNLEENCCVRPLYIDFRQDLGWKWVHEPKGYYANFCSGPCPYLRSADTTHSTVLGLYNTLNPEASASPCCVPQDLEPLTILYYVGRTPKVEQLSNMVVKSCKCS

T1 sequence (P01137 279-390 limits assumed): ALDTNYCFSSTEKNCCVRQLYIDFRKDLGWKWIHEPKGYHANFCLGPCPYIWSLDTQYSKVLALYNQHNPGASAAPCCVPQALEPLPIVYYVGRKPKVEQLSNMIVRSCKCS

What is called IC50 is the concentration at which inhibition is half-maximal. For FIST (monovalent FIST; IL2-sTBRII), the IC50 with Human active TGFβ1 was determined as 1.29 nM; with active TGFβ3, 3.6 nM.

B1: TβRII isoform 2 (receptor, UniProt P37173-2 24-184, looked up)
chain: IPPHVQKSDVEMEAQKDEIICPSCNRTAHPLRHINNDMIVTDNNGAVKFPQLCKFCDVRFSTCDNQKSCMSNCSITSICEKPQEVCVAVWRKNDENITLETVCHDPKLPYHDFILEDAASPKCIMKEKKKPGETFFMCSCSSDECNDNIIFSEEYNTSNPD
notes: also called TβRll (isoform II); control (TβRII isoform 2)
Regarding B1, the IC50 in the assay with Human active TGFβ1 worked out at 0.02 nM.
